Legend:
FLAG-Alcgamma = test system: T1, FLAG-Alcgamma
T1 sequence 1: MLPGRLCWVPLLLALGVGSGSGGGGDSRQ
T1 sequence 2: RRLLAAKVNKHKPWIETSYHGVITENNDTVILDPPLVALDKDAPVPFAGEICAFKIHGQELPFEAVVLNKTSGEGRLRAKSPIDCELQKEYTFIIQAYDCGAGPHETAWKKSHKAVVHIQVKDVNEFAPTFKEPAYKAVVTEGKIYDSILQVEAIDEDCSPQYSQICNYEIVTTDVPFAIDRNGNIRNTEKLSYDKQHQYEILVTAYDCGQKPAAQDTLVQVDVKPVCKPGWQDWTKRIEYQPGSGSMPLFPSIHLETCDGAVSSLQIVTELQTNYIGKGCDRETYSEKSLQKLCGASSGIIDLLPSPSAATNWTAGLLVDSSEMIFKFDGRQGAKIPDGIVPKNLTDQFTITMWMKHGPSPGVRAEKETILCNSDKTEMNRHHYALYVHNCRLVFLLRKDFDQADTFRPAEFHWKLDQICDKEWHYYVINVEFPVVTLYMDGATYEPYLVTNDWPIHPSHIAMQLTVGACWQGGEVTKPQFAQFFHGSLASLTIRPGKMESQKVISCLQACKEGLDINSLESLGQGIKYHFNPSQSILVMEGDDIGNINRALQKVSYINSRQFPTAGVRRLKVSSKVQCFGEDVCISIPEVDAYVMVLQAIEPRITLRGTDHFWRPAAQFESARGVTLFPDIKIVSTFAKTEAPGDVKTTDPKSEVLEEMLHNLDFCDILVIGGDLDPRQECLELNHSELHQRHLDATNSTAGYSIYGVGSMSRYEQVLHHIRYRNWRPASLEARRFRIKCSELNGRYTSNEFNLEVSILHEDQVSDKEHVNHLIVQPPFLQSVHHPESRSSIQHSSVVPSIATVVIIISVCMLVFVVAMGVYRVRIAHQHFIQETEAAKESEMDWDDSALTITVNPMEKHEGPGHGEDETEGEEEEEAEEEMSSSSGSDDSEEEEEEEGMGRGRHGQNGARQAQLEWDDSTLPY

FLAG-APP = FLAG-APP (UniProt P05067)
FLAG-Alcbeta = test system: T2, FLAG-Alcbeta
T2 sequence 1: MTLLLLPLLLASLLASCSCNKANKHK
T2 sequence 2: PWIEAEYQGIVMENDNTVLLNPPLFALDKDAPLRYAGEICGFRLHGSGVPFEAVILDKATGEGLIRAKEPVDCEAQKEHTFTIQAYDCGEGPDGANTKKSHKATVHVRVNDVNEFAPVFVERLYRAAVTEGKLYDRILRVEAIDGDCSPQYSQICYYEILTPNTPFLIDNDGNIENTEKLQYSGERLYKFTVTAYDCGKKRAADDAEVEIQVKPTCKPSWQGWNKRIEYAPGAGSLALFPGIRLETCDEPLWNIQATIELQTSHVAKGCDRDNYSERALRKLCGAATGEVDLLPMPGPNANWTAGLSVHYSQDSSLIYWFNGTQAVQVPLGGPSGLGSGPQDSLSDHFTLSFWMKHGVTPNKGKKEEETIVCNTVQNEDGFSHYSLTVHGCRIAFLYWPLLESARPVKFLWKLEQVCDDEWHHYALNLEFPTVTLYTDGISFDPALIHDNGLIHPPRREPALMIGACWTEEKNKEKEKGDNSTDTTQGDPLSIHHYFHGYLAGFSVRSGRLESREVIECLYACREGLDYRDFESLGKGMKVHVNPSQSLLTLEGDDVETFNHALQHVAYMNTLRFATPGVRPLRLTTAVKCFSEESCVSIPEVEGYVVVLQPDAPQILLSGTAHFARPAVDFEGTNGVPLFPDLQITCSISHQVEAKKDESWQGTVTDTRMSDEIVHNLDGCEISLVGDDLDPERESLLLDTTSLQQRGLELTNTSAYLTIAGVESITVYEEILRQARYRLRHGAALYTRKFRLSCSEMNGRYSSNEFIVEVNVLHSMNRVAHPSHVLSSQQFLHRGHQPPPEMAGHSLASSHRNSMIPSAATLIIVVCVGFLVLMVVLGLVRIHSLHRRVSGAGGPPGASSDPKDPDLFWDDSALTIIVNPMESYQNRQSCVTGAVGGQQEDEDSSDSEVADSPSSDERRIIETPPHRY

FLAG-Alcalpha = test system: T3, FLAG-Alcalpha
T3 sequence 1: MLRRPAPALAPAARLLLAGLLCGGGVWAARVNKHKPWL
T3 sequence 2: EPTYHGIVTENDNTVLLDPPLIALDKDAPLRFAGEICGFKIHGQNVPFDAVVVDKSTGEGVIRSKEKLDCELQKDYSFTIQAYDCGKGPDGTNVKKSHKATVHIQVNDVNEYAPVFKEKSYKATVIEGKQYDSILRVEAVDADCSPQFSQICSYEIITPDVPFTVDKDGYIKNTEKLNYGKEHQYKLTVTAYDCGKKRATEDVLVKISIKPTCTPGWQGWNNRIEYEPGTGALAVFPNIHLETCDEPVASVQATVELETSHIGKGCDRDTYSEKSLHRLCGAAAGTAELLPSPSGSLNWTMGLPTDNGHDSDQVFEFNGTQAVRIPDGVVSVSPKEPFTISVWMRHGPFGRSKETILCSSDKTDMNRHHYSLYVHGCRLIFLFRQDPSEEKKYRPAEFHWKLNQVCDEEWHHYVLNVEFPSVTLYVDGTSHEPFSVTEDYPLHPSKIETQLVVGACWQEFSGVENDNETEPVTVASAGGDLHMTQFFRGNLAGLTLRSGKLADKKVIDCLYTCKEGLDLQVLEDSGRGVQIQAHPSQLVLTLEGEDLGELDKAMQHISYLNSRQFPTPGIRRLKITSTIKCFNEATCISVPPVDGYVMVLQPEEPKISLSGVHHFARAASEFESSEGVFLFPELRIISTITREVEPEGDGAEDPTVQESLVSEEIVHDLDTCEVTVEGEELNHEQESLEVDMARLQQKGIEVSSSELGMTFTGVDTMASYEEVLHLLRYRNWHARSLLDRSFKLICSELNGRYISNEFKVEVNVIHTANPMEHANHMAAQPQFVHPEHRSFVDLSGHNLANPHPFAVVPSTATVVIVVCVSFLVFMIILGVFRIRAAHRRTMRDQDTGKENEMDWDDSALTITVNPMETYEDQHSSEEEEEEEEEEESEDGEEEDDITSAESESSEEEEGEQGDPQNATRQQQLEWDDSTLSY

Sequence of ADAM10-HA (O14672 whole entry): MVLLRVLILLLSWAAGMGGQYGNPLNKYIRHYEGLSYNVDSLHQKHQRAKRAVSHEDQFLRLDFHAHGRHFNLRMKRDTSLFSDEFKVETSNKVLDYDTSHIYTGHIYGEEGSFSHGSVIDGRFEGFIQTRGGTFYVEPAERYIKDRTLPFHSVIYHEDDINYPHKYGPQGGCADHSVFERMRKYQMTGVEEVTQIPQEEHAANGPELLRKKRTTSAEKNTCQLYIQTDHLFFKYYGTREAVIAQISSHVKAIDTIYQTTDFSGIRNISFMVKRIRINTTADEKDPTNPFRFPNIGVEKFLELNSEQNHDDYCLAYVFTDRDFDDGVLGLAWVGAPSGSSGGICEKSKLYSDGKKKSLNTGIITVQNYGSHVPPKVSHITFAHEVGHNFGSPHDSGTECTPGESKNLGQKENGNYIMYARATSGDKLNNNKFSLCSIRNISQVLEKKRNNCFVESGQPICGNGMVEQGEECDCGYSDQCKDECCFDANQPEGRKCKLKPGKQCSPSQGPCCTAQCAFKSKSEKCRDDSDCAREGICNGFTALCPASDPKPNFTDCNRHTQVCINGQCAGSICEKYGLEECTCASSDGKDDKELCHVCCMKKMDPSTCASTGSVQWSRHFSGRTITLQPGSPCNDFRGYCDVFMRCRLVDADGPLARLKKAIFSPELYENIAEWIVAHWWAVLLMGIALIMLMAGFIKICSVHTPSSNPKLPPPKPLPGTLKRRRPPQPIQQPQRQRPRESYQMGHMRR
Sequence of FLAG-APP (P05067 whole entry, looked up): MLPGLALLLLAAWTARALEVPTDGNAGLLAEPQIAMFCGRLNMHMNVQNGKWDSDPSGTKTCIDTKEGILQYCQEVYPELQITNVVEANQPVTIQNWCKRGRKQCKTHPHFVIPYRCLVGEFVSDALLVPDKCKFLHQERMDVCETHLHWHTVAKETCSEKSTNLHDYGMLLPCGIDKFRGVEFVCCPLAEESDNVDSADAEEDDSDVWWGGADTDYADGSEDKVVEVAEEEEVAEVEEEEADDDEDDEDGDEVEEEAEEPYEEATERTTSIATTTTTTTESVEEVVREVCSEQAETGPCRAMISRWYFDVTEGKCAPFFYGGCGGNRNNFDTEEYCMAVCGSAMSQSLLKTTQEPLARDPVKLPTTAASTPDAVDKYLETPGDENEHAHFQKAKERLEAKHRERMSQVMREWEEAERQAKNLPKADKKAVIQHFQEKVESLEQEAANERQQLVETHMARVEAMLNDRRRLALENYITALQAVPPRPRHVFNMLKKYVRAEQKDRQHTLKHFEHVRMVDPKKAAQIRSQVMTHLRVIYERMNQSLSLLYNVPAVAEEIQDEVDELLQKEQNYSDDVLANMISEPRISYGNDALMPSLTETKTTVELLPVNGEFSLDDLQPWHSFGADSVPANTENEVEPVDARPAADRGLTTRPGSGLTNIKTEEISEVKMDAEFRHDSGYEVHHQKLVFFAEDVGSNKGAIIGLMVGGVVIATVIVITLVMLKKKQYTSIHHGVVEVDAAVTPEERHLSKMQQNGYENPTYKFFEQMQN

ADAM10-HA
amount of sAlcgamma secreted by ADAM (-/-) MEFs with exogenous ADAM10 (FLAG-Alcgamma): The amounts of sAlcalpha, sAlcbeta, and sAlcgamma secreted by ADAM (-/-) MEFs were restored in response to the expression of exogenous ADAM10
amount of sAPP secreted by ADAM (-/-) MEFs with exogenous ADAM10 against without (FLAG-APP): about 1.7 fold over that of sAPP secreted by ADAM (-/-) MEFs
amount of sAlcbeta secreted by ADAM (-/-) MEFs with exogenous ADAM10 (FLAG-Alcbeta): The amounts of sAlcalpha, sAlcbeta, and sAlcgamma secreted by ADAM (-/-) MEFs were restored in response to the expression of exogenous ADAM10
amount of sAlcalpha secreted by ADAM (-/-) MEFs with exogenous ADAM10 (FLAG-Alcalpha): The amounts of sAlcalpha, sAlcbeta, and sAlcgamma secreted by ADAM (-/-) MEFs were restored in response to the expression of exogenous ADAM10

Reference: patent US20100323375
